Data taken from article PMC12496174.

Biological target: BASP1 (brain acid soluble protein 1, CAP23, NAP22) (UniProt Q91XV3)
Assay: peptide affinity column, brain lysate, LC-MS/MS
Settings: reference: non-phospho peptide …; sites S351

binding against the reference: stronger
Substance: PLPPR3 (phospholipid-phosphatase-related protein 3) (from UniProt Q7TPB0) pS351 peptide LKRApSVDVDLLA
